Percent associated with RNCs, fold change of binding with added m3 against no addition, Δget3 extract and Kd data for five molecules are collected here from PMC7862611, “Ribosome-bound Get4/5 facilitates the capture of tail-anchored proteins by Sgt2 in yeast” (Nature Communications, 2021).

Assay [1] deals with T1, RNCs carrying the most N-terminal 100 residues of Pgk1 as a nascent chain (yeast (S. cerevisiae) | S. cerevisiae) (UniProt P00560).
T1 sequence (P00560 1-100, looked up): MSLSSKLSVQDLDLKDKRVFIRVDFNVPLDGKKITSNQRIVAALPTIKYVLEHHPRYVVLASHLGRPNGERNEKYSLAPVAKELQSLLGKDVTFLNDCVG
The assay is described as follows: pull-down; FLAG-tag pull-down of RNCs with N-terminally FLAG-tagged nascent chains made in yeast translation extracts (wild type, Δsrp54, without Get4/5, without Sgt2 or Get3; with or without 2 µM purified His6Get4/Get5), RNCs first pelleted through a sucrose cushion; immunoblot. (Immunoblotting shows a protein as a band on a membrane.)

Assay [2] has as its target released Sec22 (yeast (S. cerevisiae)) (UniProt P22214). Put plainly: pull-down; FLAG-tag pull-down of radiolabelled ribosome-released FLAG-Sec22 from yeast translation reactions (wild type, Δget3 with or without 2 µM His6Get4/Get5, Δget3Δget4Δget5); immunoblot.
For another assay, the target named is 80S ribosome (S. cerevisiae). The assay is described as follows: fluorescence polarisation; fluorescence anisotropy; Get4/5-Atto390 held at 20 nM, 80S ribosomes added to 20–500 nM; 20 °C; 50 mM Tris/HCl pH 7.5, 70 mM NH4Cl, 30 mM KCl, 7 mM MgCl2; one site saturation binding fit. The note with it: both partners purified. Background: Fluorescence polarisation rises when a labelled molecule tumbles more slowly, as on binding a larger partner.

The term Kd denotes the constant that tells how readily two partners part at equilibrium. A higher Kd goes with lower affinity.

released Sec22 (yeast (S. cerevisiae)), sequence (P22214 whole entry): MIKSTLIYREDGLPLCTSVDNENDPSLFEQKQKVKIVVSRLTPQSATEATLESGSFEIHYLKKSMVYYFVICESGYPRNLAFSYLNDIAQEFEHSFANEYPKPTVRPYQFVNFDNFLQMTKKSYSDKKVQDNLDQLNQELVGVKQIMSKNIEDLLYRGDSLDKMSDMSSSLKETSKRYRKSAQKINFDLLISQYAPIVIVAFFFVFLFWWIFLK

With “Get4 (from UniProt Q12125 1-312) (natural protein)”, the percent associated with RNCs in assay [1] is 2%.
For the molecule “Get5 (from UniProt Q12285 1-212) (natural protein)”, the percent associated with RNCs in assay [1] came out at 2%.
“Sgt2 (from UniProt Q12118 1-346) (natural protein)”: in assay [2], the fold change of binding with added m3 against no addition, Δget3 extract was above 2 fold.

B1: signal recognition particle (SRP), followed by its 54 kDa subunit Srp54 (natural protein)
chain: MVLADLGKRINSAVNNAISNTQDDFTTSVDVMLKGIVTALLESDVNIALVSKLRNNIRSQLLSENRSEKSTTNAQTKKLIQKTVFDELCKLVTCEGSEEKAFVPKKRKTNIIMFVGLQGSGKTTSCTKLAVYYSKRGFKVGLVCADTFRAGAFDQLKQNAIRARIPFYGSYTETDPAKVAEEGINKFKKEKFDIIIVDTSGRHHQEEELFQEMIEISNVIKPNQTIMVLDASIGQAAEQQSKAFKESSDFGAIILTKMDGHARGGGAISAVAATNTPIIFIGTGEHIHDLEKFSPKSFISKLLGIGDIESLFEQLQTVSNKEDAKATMENIQKGKFTLLDFKKQMQTIMKMGPLSNIAQMIPGMSNMMNQVGEEETSQKMKKMVYVLDSMTKEELESDGRMFIEEPTRMVRVAKGSGTSVFEVEMILMQQQMMARMAQTATQQQPGAPGANARMPGMPNMPGMPNMPGMPNMPGMPKVTPQMMQQAQQKLKQNPGLMQNMMNMFGGGMGGGMGGGMPDMNEMMKMMQDPQMQQMAKQFGMG
Molecule B1 gave a percent associated with RNCs in assay [1] of 0.3%.

B2: Get4/5-Atto390 (complex, yeast (S. cerevisiae))
chain 1: MVPAESNAVQAKLAKTLQRFENKIKAGDYYEAHQTLRTIANRYVRSKSYEHAIELISQGALSFLKAKQGGSGTDLIFYLLEVYDLAEVKVDDISVARLVRLIAELDPSEPNLKDVITGMNNWSIKFSEYKFGDPYLHNTIGSKLLEGDFVYEAERYFMLGTHDSMIKYVDLLWDWLCQVDDIEDSTVAEFFSRLVFNYLFISNISFAHESKDIFLERFIEKFHPKYEKIDKNGYEIVFFEDYSDLNFLQLLLITCQTKDKSYFLNLKNHYLDFSQAYKSELEFLGQEYFNIVAPKQTNFLQDMMSGFLGGSK
chain 2: MSTSASGPEHEFVSKFLTLATLTEPKLPKSYTKPLKDVTNLGVPLPTLKYKYKQNRAKKLKLHQDQQGQDNAAVHLTLKKIQAPKFSIEHDFSPSDTILQIKQHLISEEKASHISEIKLLLKGKVLHDNLFLSDLKVTPANSTITVMIKPNPTISKEPEAEKSTNSPAPAPPQELTVPWDDIEALLKNNFENDQAAVRQVMERLQKGWSLAK
modifications: ATTO-390-maleimide on the surface-exposed cysteine of the two cysteines present in Get4 (C177, 255)
notes: Get4, yeast; Get5, yeast; also called Get4/His6Get5; Get4_(2)Get5_(2) complex; copies: 2 + 2
Take B2: the Kd in the assay with 80S ribosome stood at 110 nM.
